Data on 25 sequences can be found in the supplement of paper PMC9233669.

Variants at the floor of the assay were thinned out.

The subject of data set [1] is biotinyl-Val-oxazolone. Nature of the data set: self-aminoacylation, catalytic enhancement (BVO) (fold over background); higher = more active; k-Seq, kA / k0A0; sequences stand for … in GGGAAUGGAUCCACAUCUACGAAUUC…UUCACUGCAGACUUGACGAAGCUG
Put shortly: (§1)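 The uncatalyzed rate is the low-activity peak of a bimodal Gaussian fit, and catalytic enhancement is median kA divided by it. The kA values came from pseudo-first-order fits, with 1000 bootstraps, of per-sequence fraction reacted measured by streptavidin capture, triplicate qPCR and Illumina sequencing. Mutagenized RNA pools with a 21-nt variable region (0.43 μM) were reacted with each biotinyl-aminoacyl-oxazolone at 2–1250 μM in 50 μL HEPES/NaCl/KCl/MgCl2/CaCl2 buffer with 5% acetonitrile, pH 6.9–7.0, for 90 minutes at room temperature.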

In data set [2] the test system is biotinyl-Met-oxazolone. Nature of the data set: self-aminoacylation, catalytic enhancement (BMO) (fold over background); higher = more active; k-Seq, kA / k0A0; sequences stand for … in GGGAAUGGAUCCACAUCUACGAAUUC…UUCACUGCAGACUUGACGAAGCUG
In short, it runs like this: as §1

For data set [3], the system named is biotinyl-Phe-oxazolone. Description: self-aminoacylation, catalytic enhancement (BFO) (fold over background); higher = more active; k-Seq, kA / k0A0; sequences stand for … in GGGAAUGGAUCCACAUCUACGAAUUC…UUCACUGCAGACUUGACGAAGCUG
Put shortly: as §1

Data set [4] deals with biotinyl-Leu-oxazolone. Description: self-aminoacylation, catalytic enhancement (BLO) (fold over background); higher = more active; k-Seq, kA / k0A0; sequences stand for … in GGGAAUGGAUCCACAUCUACGAAUUC…UUCACUGCAGACUUGACGAAGCUG
In short, it runs like this:
as §1

The test system of data set [5] is biotinyl-Ile-oxazolone. Description: self-aminoacylation, catalytic enhancement (BIO) (fold over background); higher = more active; k-Seq, kA / k0A0; sequences stand for … in GGGAAUGGAUCCACAUCUACGAAUUC…UUCACUGCAGACUUGACGAAGCUG
Put shortly:
as §1

In data set [6] the test system is biotinyl-Trp-oxazolone. Nature of the data set: self-aminoacylation, catalytic enhancement (BWO) (fold over background); higher = more active; k-Seq, kA / k0A0; sequences stand for … in GGGAAUGGAUCCACAUCUACGAAUUC…UUCACUGCAGACUUGACGAAGCUG
In short, it runs like this: as §1

For “CCAGACUUCAAGCAGUCGGUC [Fam1B.1 aminoacylation ribozyme variant]”, the self-aminoacylation in data set [1] stood at 1.3; in data set [2] it was 1.1; in data set [3] it was 1.4; in data set [4], 1.77; in data set [5], 1.48; in data set [6] it was 1.39.
“UUACUUCAAAAAAUCGGUCUG [Fam1A.1 aminoacylation ribozyme variant]”: the self-aminoacylation in data set [1] was 0.984; in data set [2] it was 1.22; in data set [3], 7.17; in data set [4], 1.29; in data set [5], 1.44; in data set [6], 5.65.
On to “AUUACCCCUGUCAUCGAGUGA [Fam2.1 aminoacylation ribozyme variant]”, for which the self-aminoacylation came out at 3.14 in data set [1]; 4.96 in data set [2]; 28.2 in data set [3]; 5.42 in data set [4]; 3.62 in data set [5]; 7.28 in data set [6].
Consider “AUUCACAUAGGUCAUCAGGUG [Fam2.2 aminoacylation ribozyme variant]”, for which the self-aminoacylation came to 1.4 in data set [1]; 1.41 in data set [2]; 1.62 in data set [3]; 1.63 in data set [4]; 1.2 in data set [5]; 1.85 in data set [6].
In the case of “AUACACCUACGUCAUCGGGUG [Fam2.2 aminoacylation ribozyme variant]”, the self-aminoacylation was determined as 2.49 in data set [1]; 4.6 in data set [2]; 31.8 in data set [3]; 5.2 in data set [4]; 3.12 in data set [5]; 3.83 in data set [6].
For “CUACUUCAACCAAUCGGUCUC [Fam1A.1 aminoacylation ribozyme variant]”, the self-aminoacylation in data set [1] was determined as 0.98; in data set [2], 0.76; in data set [3], 23.8; in data set [4], 1.19; in data set [5] it was 0.904; in data set [6] it was 12.9.
With “CCACUCCUCAAGCAAUCGGUC [Fam1B.1 aminoacylation ribozyme variant]”, the self-aminoacylation in data set [1] amounted to 1.23; in data set [2], 0.986; in data set [3], 1.26; in data set [4] it was 0.845; in data set [5], 1.07; in data set [6], 1.26.
In the case of “CAACACUUCAAGCAAUGGGUC [Fam1B.1 aminoacylation ribozyme variant]”, the self-aminoacylation in data set [1] amounted to 0.664; in data set [2], 0.834; in data set [3] it was 0.677; in data set [4] it was 0.882; in data set [5] it was 0.858; in data set [6], 0.833.
Turning to “AAGUUUGCUAAUAGUCGCAUA [Fam3.1 aminoacylation ribozyme variant]”, the self-aminoacylation in data set [1] worked out at 1.22; in data set [2], 0.936; in data set [3], 1.58; in data set [4], 0.954; in data set [5] it was 1.21; in data set [6], 1.23.
“AAGUUUGCUAAUAAUCGCAAA [Fam3.1 aminoacylation ribozyme variant]”: the self-aminoacylation in data set [1] came out at 1.14; in data set [2], 1.14; in data set [3] it was 0.86; in data set [4], 1.09; in data set [5], 1.2; in data set [6] it was 1.02.
For the sequence “AAGUUUGCUAAUACUCUCAAG [Fam3.1 aminoacylation ribozyme variant]”, the self-aminoacylation turned out to be 0.721 in data set [1]; 0.512 in data set [2]; 0.931 in data set [3]; 0.63 in data set [4]; 0.693 in data set [5]; 0.527 in data set [6].
Take “AAGGUUGCUAAUAGUCGCAAU [Fam3.1 aminoacylation ribozyme variant]”: the self-aminoacylation in data set [1] came out at 1.46; in data set [2] it was 1.81; in data set [3] it was 3.18; in data set [4], 1.68; in data set [5], 1.99; in data set [6], 1.61.
Take “CUACUUCAAUCAACCGGUCUG [Fam1A.1 aminoacylation ribozyme variant]”: the self-aminoacylation in data set [1] is 0.806; in data set [2], 0.525; in data set [3] it was 0.9; in data set [4] it was 0.729; in data set [5], 0.925; in data set [6], 0.663.
As to “CCGCACUUCAAGCAAUCAGUC [Fam1B.1 aminoacylation ribozyme variant]”, the self-aminoacylation in data set [1] came out at 0.859; in data set [2] it was 0.798; in data set [3] it was 18.8; in data set [4], 0.943; in data set [5] it was 0.854; in data set [6], 7.12.
With “AUUACCCUGAUCAUCGAGUUA [Fam2.1 aminoacylation ribozyme variant]”, the self-aminoacylation came out at 1.11 in data set [1]; 0.824 in data set [2]; 0.549 in data set [3]; 0.958 in data set [4]; 1.02 in data set [5]; 0.61 in data set [6].
Turning to “AUUACCCUGGACAUCGUGUGA [Fam2.1 aminoacylation ribozyme variant]”, the self-aminoacylation in data set [1] turned out to be 1.44; in data set [2], 2.41; in data set [3], 10.9; in data set [4] it was 2.45; in data set [5], 1.39; in data set [6], 2.5.
As for “AUUCACCUAGGUCAUCAGUUG [Fam2.2 aminoacylation ribozyme variant]”, the self-aminoacylation in data set [1] came out at 0.939; in data set [2], 0.88; in data set [3], 0.935; in data set [4], 0.942; in data set [5] it was 0.954; in data set [6], 0.698.
Consider “CUACUUGAGACAAUCGGUCUG [Fam1A.1 aminoacylation ribozyme variant]”, for which the self-aminoacylation worked out at 1.01 in data set [1]; 0.94 in data set [2]; 0.89 in data set [3]; 0.962 in data set [4]; 0.884 in data set [5]; 1.1 in data set [6].
“AAGUUUACUAAUAGUCGCAAG [Fam3.1 aminoacylation ribozyme variant]”: the self-aminoacylation was determined as 1.32 in data set [1]; 1.23 in data set [2]; 2.7 in data set [3]; 1.3 in data set [4]; 1.4 in data set [5]; 1.5 in data set [6].
Consider “CUACUUCAAACAAUCGCUCCG [Fam1A.1 aminoacylation ribozyme variant]”, for which the self-aminoacylation in data set [1] stood at 0.926; in data set [2], 0.713; in data set [3], 1.08; in data set [4], 0.775; in data set [5], 0.768; in data set [6], 1.02.
With “AUUCAUCUAGGUCAACGGGUG [Fam2.2 aminoacylation ribozyme variant]”, the self-aminoacylation in data set [1] was 2.61; in data set [2] it was 4.08; in data set [3], 29.6; in data set [4] it was 5.32; in data set [5], 2.6; in data set [6], 3.23.
In the case of “AUUCACCUUGGUCGUCGGGUG [Fam2.2 aminoacylation ribozyme variant]”, the self-aminoacylation stood at 1.81 in data set [1]; 1.86 in data set [2]; 11.3 in data set [3]; 2.18 in data set [4]; 1.9 in data set [5]; 2.01 in data set [6].
Turning to “AAGUUUGCUAACAGUCUCAAG [Fam3.1 aminoacylation ribozyme variant]”, the self-aminoacylation in data set [1] was found to be 0.694; in data set [2] it was 0.713; in data set [3], 4.44; in data set [4] it was 0.733; in data set [5] it was 0.979; in data set [6], 1.64.
In the case of “AUUGACCUAGGUCAUCGGGUU [Fam2.2 aminoacylation ribozyme variant]”, the self-aminoacylation in data set [1] was 6.49; in data set [2], 13.9; in data set [3] it was 98.6; in data set [4], 18.8; in data set [5], 7.25; in data set [6], 12.2.
As for “AUUUCCCUGUUCAUCGAGUGA [Fam2.1 aminoacylation ribozyme variant]”, the self-aminoacylation in data set [1] came out at 3.09; in data set [2] it was 5.22; in data set [3], 11.4; in data set [4], 5.04; in data set [5], 2.79; in data set [6], 5.62.
